For test [1], the target named is Human RGMa protein (R&D systems, 2459-RM) (human) (UniProt Q96B86). Briefly: SPR (Proteon XPR36), antigen amine-coupled on a GLC chip, antibody as analyte.
The target of test [2] is T1, mouse RGMa protein (R&D systems, 2458-RG) (mouse) (UniProt Q6PCX7).
T1 sequence: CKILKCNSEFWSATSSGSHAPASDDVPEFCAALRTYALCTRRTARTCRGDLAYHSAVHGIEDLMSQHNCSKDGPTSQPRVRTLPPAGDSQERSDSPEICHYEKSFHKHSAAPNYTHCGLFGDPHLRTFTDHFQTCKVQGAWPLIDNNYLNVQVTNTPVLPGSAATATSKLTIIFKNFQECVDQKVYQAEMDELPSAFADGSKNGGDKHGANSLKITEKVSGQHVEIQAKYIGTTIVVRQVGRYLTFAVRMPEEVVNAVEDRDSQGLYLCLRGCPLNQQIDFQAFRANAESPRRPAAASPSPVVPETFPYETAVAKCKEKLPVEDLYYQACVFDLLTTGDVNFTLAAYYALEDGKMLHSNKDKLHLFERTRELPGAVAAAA
The test is described as above.

The target in test [3] is T2, Human RGMa protein (R&D systems, 2459-RM) (human, UniProt Q96B86 48-422, limits assumed).
T2 construct: Bought protein; also called Recombinant RGMa protein
T2 sequence: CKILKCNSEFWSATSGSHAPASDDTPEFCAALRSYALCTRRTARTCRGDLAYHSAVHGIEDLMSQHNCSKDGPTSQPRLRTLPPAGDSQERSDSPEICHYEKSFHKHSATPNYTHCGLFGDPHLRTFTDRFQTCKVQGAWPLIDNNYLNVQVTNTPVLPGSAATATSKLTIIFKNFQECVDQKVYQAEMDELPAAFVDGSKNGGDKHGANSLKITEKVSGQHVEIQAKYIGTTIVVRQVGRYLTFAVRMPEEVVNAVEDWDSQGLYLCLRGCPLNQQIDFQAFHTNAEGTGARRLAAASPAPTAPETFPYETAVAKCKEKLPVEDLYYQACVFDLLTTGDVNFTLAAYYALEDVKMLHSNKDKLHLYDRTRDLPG
The test is described as above. How it is done: (§1) The affinity of the test antibodies (r116A3 and r70E4) and r5F9 (Comparative Example) for RGMa protein were measured by the surface plasmon resonance (SPR) method using Proteon XPR36 (Bio-Rad).
(§2) Human RGMa protein (R&D Systems, 2459-RM), the C-terminal domain of human RGMa protein (prepared in Example 1) or mouse RGMa protein (R&D Systems, 2458-RG) diluted to 10 μg/mL with 10 mM acetate buffer (pH4.5) was immobilized on a GLC sensor chip by amine coupling method.

Test [4] has as its target T3, C-terminal domain of human RGMa protein (prepared in Example 1), Pro 169 to Gly 422 with C-terminal histidine … (human, UniProt Q96B86 169-422).
T3 construct: Secreted from CHO cells and purified on a nickel column; also called Human RGMa C-terminal domain; recombinant human RGMa protein; not shown: histidine tag at the C terminus
T3 sequence: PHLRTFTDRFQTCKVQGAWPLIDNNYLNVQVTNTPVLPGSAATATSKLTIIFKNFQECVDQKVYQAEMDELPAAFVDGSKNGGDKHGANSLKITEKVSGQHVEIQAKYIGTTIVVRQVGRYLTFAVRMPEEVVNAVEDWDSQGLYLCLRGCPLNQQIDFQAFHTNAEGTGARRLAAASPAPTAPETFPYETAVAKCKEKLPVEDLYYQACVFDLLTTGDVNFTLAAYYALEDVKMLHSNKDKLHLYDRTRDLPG
The description is as above. How it is done: as §1, §2

Test [5] deals with T1, mouse RGMa protein (R&D systems, 2458-RG) (mouse). Description: SPR (Proteon XPR36), ratio of Kd values against r5F9.
Test [6] addresses T4, biotinylated SGSG-spacer peptide of human RGMa Asn 322 to Thr 332 (human).
T4 construct: One of 83 peptides of 11 residues, immobilised on avidin-coated plates
T4 peptide: Biotin-SGSGNQQIDFQAFHT
Description: peptide scanning ELISA, biotinylated peptides on avidin-coated plates. How it is done:
(§3) Epitopes to which the antibodies bind were determined by the peptide scanning method. A total of 83 kinds of peptides were synthesized by fusing the N-terminal side of the amino acid sequences consisting of 11 consecutive residues shifted by 3 residues contained in Arg 172 to Ala 424 of the human RGMa protein (SEQ ID NO: 1 in Sequence Listing) with a spacer sequence (SGSG) with biotinylated N terminus (SEQ ID NO: 46 in Sequence Listing). After immobilizing the peptides on avidin-coated plates, the test antibodies (B5.116A3 and B5.70E4) were allowed to react. Subsequently, a peroxidase-labeled rabbit anti-mouse Ig antibody (Dako, P026002) was allowed to react. After a substrate solution was added and color developed for a certain time, the absorbance was measured with a plate reader.
For orientation: An ELISA detects its analyte on a solid surface through an enzyme-linked reagent.

The target in test [7] is T5, biotinylated SGSG-spacer peptide of human RGMa Val 301 to Gly 311 (human).
T5 construct: One of 83 peptides of 11 residues, immobilised on avidin-coated plates
T5 peptide: Biotin-SGSGVNAVEDWDSQG
The test is described as above. On the procedure: as §3

For test [8], the target named is T6, biotinylated SGSG-spacer peptide of human RGMa Glu 298 to Asp 308 (human).
T6 construct: One of 83 peptides of 11 residues, immobilised on avidin-coated plates
T6 peptide: Biotin-SGSGEEVVNAVEDWD
Described as above. On the procedure:
as §3

The target of test [9] is T7, biotinylated SGSG-spacer peptide of human RGMa Lys 367 to Ala 377 (human).
T7 construct: One of 83 peptides of 11 residues, immobilised on avidin-coated plates
T7 peptide: Biotin-SGSGKLPVEDLYYQA
Described as above. On the procedure: as §3

Test [10] has as its target T8, biotinylated SGSG-spacer peptide of human RGMa Ile 325 to Glu 335 (human).
T8 construct: One of 83 peptides of 11 residues, immobilised on avidin-coated plates
T8 peptide: Biotin-SGSGIDFQAFHTNAE
The description is as above. On the procedure: as §3

No end group written: not given here. *: point of attachment. Biotin = O=C1N[C@H]2[C@H](CS[C@H]2CCCCC(=O)*)N1

For “recombinant rat mouse chimeric antibody r5F9 (Comparative Example)”, the values for the Kd in test [1] and in [2] were 1.59 nM and 8.98 nM, respectively.

B1: recombinant mouse antibody r116A3 (antibody, mouse IgG2b, kappa, V domains shown)
VH: EVKLEESGGGLVQPGGSMKLSCAASGFTFSDAWMDWVRQSPEKGLEWVAEIRSKANNHATYYAESVKGRFTISRDDSKRSVYLQMNNLRAEDTGIYYCTRRDGAYWGQGTLVTVSA
VL: DIQMTQTTSSLSASLGDRVTISCRASQDISSYLNWYQQKPDGTVKLLIYYTSRLHSGVPSRFSGSGSGTDYSLTISNLEQEDIATYFCQQLNTLPWTFGGGTKLEIKR
notes: Recombinant form of B5.116A3 expressed in HEK293F cells
With B1, the Kd amounted to 0.0487 nM in test [3], 0.0568 nM in [4] and 0.201 nM in test [2]. Further, in test [5], the times stronger binding than r5F9 was determined as 44 times.

B2: mouse anti-human RGMa monoclonal antibody B5.116A3 (antibody, mouse IgG2b, kappa, V domains shown)
VH: B1 VH
VL: B1 VL
For B2, the binding result in test [6], in test [7], in test [8], in [9] and in [10] was “binds” in each case.

B3: recombinant mouse antibody r70E4 (antibody, mouse IgG2b, kappa, V domains shown)
VH: DVKLQESGPGLVKPSQSLSLTCSVTGYSITTSYYWNWIRQFPGNKLEWMGYISYDGTNNYNPSLKNRISITRDTSKNQFFLRLNSVTTEDTATYYCAGSFGYSQGTLVTVSA
VL: DVVMTQTPLSLPVSLGDQASISCRSSQSLVHSNGNTYLHWYLQRPGQSPKLLIYKVSNRFSGVPDRFSGSGSGTDFTLKISRVEAEDLGLYFCSQSTHVPYTFGGGTKLEIKR
notes: Recombinant form of B5.70E4 expressed in HEK293F cells
For the molecule B3, the values for the Kd in [3], in test [4] and in test [2] were 2.43 nM, 1.12 nM and 174 nM, respectively.

Usually Kd stands for the constant that tells how readily two partners part at equilibrium.

Values taken from patent US20210277098A1 (MITSUBISHI TANABE PHARMA, published 2021).
